This note sets out measurements from publication PMC9097876 (Science Immunology, 2022).

Common to all, as to details: both partners purified
Experiment [1] has as its target T1, SARS-CoV-2 spike receptor-binding domain (RBD), Alpha variant (SARS-CoV-2, Alpha variant (B.1.1.7), N501Y).
T1 construct: not shown: His tag, C-terminal, kept
The experiment is described as follows: BLI.

Experiment [2] addresses T2, SARS-CoV-2 spike receptor-binding domain (RBD), Gamma variant (SARS-CoV-2, Gamma variant (P.1), E484K | N501Y).
T2 construct: not shown: His tag, C-terminal, kept
The experiment is described as follows: BLI.

For experiment [3], the target named is T3, SARS-CoV-2 spike receptor-binding domain (RBD), Delta variant (SARS-CoV-2, Delta variant (B.1.617.2), L452R | T478K).
T3 construct: not shown: His tag, C-terminal, kept
The experiment is described as follows: BLI.

Experiment [4] has as its target T4, SARS-CoV-2 spike receptor-binding domain (RBD), Delta variant (SARS-CoV-2, Delta variant (B.1.617.2), L452R | T478K).
T4 construct: not shown: His tag, C-terminal, kept
The experiment is described as follows: BLI. The source holds these as a separate data set.

Experiment [5] addresses T5, SARS-CoV-2 spike receptor-binding domain (RBD), Wuhan isolate (SARS-CoV-2, Wuhan, UniProt P0DTC2).
T5 construct: not shown: His tag, C-terminal, kept
The experiment is described as follows: BLI.

Experiment [6] addresses T6, SARS-CoV-2 spike receptor-binding domain (RBD), Alpha variant (SARS-CoV-2, Alpha variant (B.1.1.7), N501Y).
T6 construct: not shown: His tag, C-terminal, kept
The experiment is described as follows: BLI. This is another data set of the same source.

For experiment [7], the target named is T7, SARS-CoV-2 spike receptor-binding domain (RBD), Gamma variant (SARS-CoV-2, Gamma (P.1), E484K | N501Y).
T7 construct: not shown: His tag, C-terminal, kept
The experiment is described as follows: BLI.

Experiment [8] deals with SARS-CoV-2 spike hexapro, prefusion stabilized spike ectodomain trimer (SARS-CoV-2, Wuhan, UniProt P0DTC2, stabilised). The experiment is described as follows: cryo-EM structure.

B1: G32Q4 Fab (Fab, V domains shown)
VH: QVQLVESGGGVVQPGRSLRLSCAASGFTFSRYAMQWVRQAPGKGLEWVAVISYDGNNRYYADSVKGRFTISRDNSKNTLYLQMNSLRAEDTAVYYCARGPPGYYDSSGYYQTPEYFQHWGQGTLVTVSS
VL: QSVLTQPPSVSGAPGQRVTISCTGSSSNIGVGYDVHWYQQFPGTVPKLLIYGNSNRPSGVPDRFSGSKSGTSASLAITGLQAEDEADYYCQSYDSSLSGVVFGGGTKLTVL
For the molecule B1, the koff in experiment [1] worked out at 0.007 s⁻¹; in experiment [2] it was 0.0025 s⁻¹; in experiment [3], 0.0062 s⁻¹. In addition, the figures for the kon in experiment [1], in experiment [2] and in experiment [3] were 930000 M⁻¹ s⁻¹, 2e+06 M⁻¹ s⁻¹ and 1.2e+06 M⁻¹ s⁻¹, respectively.

B2: G32Q4 Fab (Fab, V domains shown)
VH: QVQLVESGGGVVQPGRSLRLSCAASGFTFSRYAMQWVRQAPGKGLEWVAVISYDGNNRYYADSVKGRFTISRDNSKNTLYLQMNSLRAEDTAVYYCARGPPGYYDSSGYYQTPEYFQHWGQGTLVTVSS
VL: QSVLTQPPSVSGAPGQRVTISCTGSSSNIGVGYDVHWYQQFPGTVPKLLIYGNSNRPSGVPDRFSGSKSGTSASLAITGLQAEDEADYYCQSYDSSLSGVVFGGGTKLTVL
As to B2, the Kd in experiment [4] turned out to be 53 nM; in experiment [5], 57 nM; in experiment [6], 75 nM; in experiment [7] it was 13 nM. Moreover, the binding result in experiment [8] is listed as “binds”.

B3: C98C7 Fab (Fab, V domains shown)
VH: EVQLVESGGGLVQPGGSLRLSCAASGITVSSNYMSWVRQAPGKGLEWVSVIYSGGSTFYADSVKGRFTISRDNSKNTLYLQMSSLRAEDTAVYYCARDLVVFGMDVWGQGTTVTVSS
VL: EIVLTQSPGTLSLSPGETATLSCRASQSVGSSYLTWYQQKPGQAPRLLIYGASSRATGIPDRFSGSGSGTDFTLTISRLEPEDFAVYYCQHYGSSPTFGQGTKVEIK
In experiment [3], B3 returned a dissociation constant (Kd) of 3.5 nM, an off-rate constant (koff) of 0.00099 s⁻¹ and a kon of 280000 M⁻¹ s⁻¹.

B4: C98C7 Fab (Fab, V domains shown)
VH: EVQLVESGGGLVQPGGSLRLSCAASGITVSSNYMSWVRQAPGKGLEWVSVIYSGGSTFYADSVKGRFTISRDNSKNTLYLQMSSLRAEDTAVYYCARDLVVFGMDVWGQGTTVTVSS
VL: EIVLTQSPGTLSLSPGETATLSCRASQSVGSSYLTWYQQKPGQAPRLLIYGASSRATGIPDRFSGSGSGTDFTLTISRLEPEDFAVYYCQHYGSSPTFGQGTKVEIK
Consider B4, for which the Kd in experiment [4] was 3 nM; in experiment [5] it was 3 nM; in experiment [6], 6 nM; in experiment [7] it was 1 nM. Besides, in experiment [8], the binding result is recorded as “binds”.
